According to the Human Domainome abundance scans (Beltran et al. 2025):
± gives the uncertainty stated by the source.

B1: Zinc finger MYM-type protein 6, residues 427 to 504; numbered along this chain, O95789 (parent)
chain: KLKCQHCNHLFATKPELLFYKGKMFLFCGKNCSDEYKKKNKVVAMCDYCKLQKIIKETVRFSGVDKPFCSEVCKFLSA

Variants of: B1
Assay: abundance fitness (aPCA) (normalised: wild type 0, dead -1); higher = more abundant; growth selection in yeast, the domain comes from the species named
Details: Homo sapiens

KLKCQHCNHLFATKPELLFYKGKMFLFCGKNCSDEYKKKNKVVAMCDYCKLQKIIKETVRFSGVMKPFCSEVCKFLSA [D65M] and KLKCQHCNHLFATKPELLFYKGKMFLFCGKNCSDEYKKKNKVVAMCDYCKLQKIIKETVRFSGVNKPFCSEVCKFLSA [D65N] are within error of each other in abundance fitness: 0.006 ± 0.13 for the first, -0.141 ± 0.34 for the second.

Compared with KLKCQHCNHLFATKPELLFYKGKMFLFCGKNCSDEYKKKNKVVAMCDYCKLQKIIKETVRFSGVPKPFCSEVCKFLSA [D65P], KLKCQHCNHLFATKPELLFYKGKMFLFCGKNCSDEYKKKNKVVAMCDYCKLQKIIKETVRFSGVRKPFCSEVCKFLSA [D65R] is lower in abundance fitness: -0.339 ± 0.21 for the first, -0.908 ± 0.23 for the second.

KLKCQHCNHLFATKPELLFYKGKMFLFCGKNCSDEYKKKNKVVAMCDYCKLQKIIKETVRFSGVSKPFCSEVCKFLSA [D65S] and KLKCQHCNHLFATKPELLFYKGKMFLFCGKNCSDEYKKKNKVVAMCDYCKLQKIIKETVRFSGVTKPFCSEVCKFLSA [D65T] are within error of each other in abundance fitness: -0.188 ± 0.1 for the first, -0.208 ± 0.36 for the second.

KLKCQHCNHLFATKPELLFYKGKMFLFCGKNCSDEYKKKNKVVAMCDYCKLQKIIKETVRFSGVVKPFCSEVCKFLSA [D65V] and KLKCQHCNHLFATKPELLFYKGKMFLFCGKNCSDEYKKKNKVVAMCDYCKLQKIIKETVRFSGVDAPFCSEVCKFLSA [K66A] are within error of each other in abundance fitness: -0.232 ± 0.1 for the first, -0.292 ± 0.23 for the second.

First: KLKCQHCNHLFATKPELLFYKGKMFLFCGKNCSDEYKKKNKVVAMCDYCKLQKIIKETVRFSGVDCPFCSEVCKFLSA [K66C]
Second: KLKCQHCNHLFATKPELLFYKGKMFLFCGKNCSDEYKKKNKVVAMCDYCKLQKIIKETVRFSGVDEPFCSEVCKFLSA [K66E]
The abundance fitness of the first is lower: -0.635 ± 0.33 for the first, 0.161 ± 0.16 for the second.

KLKCQHCNHLFATKPELLFYKGKMFLFCGKNCSDEYKKKNKVVAMCDYCKLQKIIKETVRFSGVDGPFCSEVCKFLSA [K66G] and KLKCQHCNHLFATKPELLFYKGKMFLFCGKNCSDEYKKKNKVVAMCDYCKLQKIIKETVRFSGVDHPFCSEVCKFLSA [K66H] are within error of each other in abundance fitness: 0.144 ± 0.11 for the first, -0.091 ± 0.19 for the second.

Going from KLKCQHCNHLFATKPELLFYKGKMFLFCGKNCSDEYKKKNKVVAMCDYCKLQKIIKETVRFSGVDLPFCSEVCKFLSA [K66L] to KLKCQHCNHLFATKPELLFYKGKMFLFCGKNCSDEYKKKNKVVAMCDYCKLQKIIKETVRFSGVDMPFCSEVCKFLSA [K66M], the abundance fitness rises from -0.889 ± 0.4 to 0.325 ± 0.15.

KLKCQHCNHLFATKPELLFYKGKMFLFCGKNCSDEYKKKNKVVAMCDYCKLQKIIKETVRFSGVDQPFCSEVCKFLSA [K66Q] and KLKCQHCNHLFATKPELLFYKGKMFLFCGKNCSDEYKKKNKVVAMCDYCKLQKIIKETVRFSGVDSPFCSEVCKFLSA [K66S] are within error of each other in abundance fitness: -0.348 ± 0.23 for the first, -0.669 ± 0.31 for the second.

First: KLKCQHCNHLFATKPELLFYKGKMFLFCGKNCSDEYKKKNKVVAMCDYCKLQKIIKETVRFSGVDTPFCSEVCKFLSA [K66T]
Second: KLKCQHCNHLFATKPELLFYKGKMFLFCGKNCSDEYKKKNKVVAMCDYCKLQKIIKETVRFSGVDVPFCSEVCKFLSA [K66V]
The abundance fitness of the first is lower: -0.199 ± 0.33 for the first, 0.542 ± 0.081 for the second.

Compared with KLKCQHCNHLFATKPELLFYKGKMFLFCGKNCSDEYKKKNKVVAMCDYCKLQKIIKETVRFSGVDWPFCSEVCKFLSA [K66W], KLKCQHCNHLFATKPELLFYKGKMFLFCGKNCSDEYKKKNKVVAMCDYCKLQKIIKETVRFSGVDYPFCSEVCKFLSA [K66Y] is higher in abundance fitness: -0.845 ± 0.28 for the first, 0.215 ± 0.33 for the second.

KLKCQHCNHLFATKPELLFYKGKMFLFCGKNCSDEYKKKNKVVAMCDYCKLQKIIKETVRFSGVDKAFCSEVCKFLSA [P67A] and KLKCQHCNHLFATKPELLFYKGKMFLFCGKNCSDEYKKKNKVVAMCDYCKLQKIIKETVRFSGVDKEFCSEVCKFLSA [P67E] are within error of each other in abundance fitness: -0.51 ± 0.22 for the first, -0.562 ± 0.23 for the second.

Compared with KLKCQHCNHLFATKPELLFYKGKMFLFCGKNCSDEYKKKNKVVAMCDYCKLQKIIKETVRFSGVDKGFCSEVCKFLSA [P67G], KLKCQHCNHLFATKPELLFYKGKMFLFCGKNCSDEYKKKNKVVAMCDYCKLQKIIKETVRFSGVDKKFCSEVCKFLSA [P67K] is higher in abundance fitness: 0.07 ± 0.1 for the first, 0.486 ± 0.17 for the second.

Compared with KLKCQHCNHLFATKPELLFYKGKMFLFCGKNCSDEYKKKNKVVAMCDYCKLQKIIKETVRFSGVDKLFCSEVCKFLSA [P67L], KLKCQHCNHLFATKPELLFYKGKMFLFCGKNCSDEYKKKNKVVAMCDYCKLQKIIKETVRFSGVDKMFCSEVCKFLSA [P67M] is higher in abundance fitness: -0.354 ± 0.14 for the first, 0.952 ± 0.092 for the second.

Compared with KLKCQHCNHLFATKPELLFYKGKMFLFCGKNCSDEYKKKNKVVAMCDYCKLQKIIKETVRFSGVDKQFCSEVCKFLSA [P67Q], KLKCQHCNHLFATKPELLFYKGKMFLFCGKNCSDEYKKKNKVVAMCDYCKLQKIIKETVRFSGVDKRFCSEVCKFLSA [P67R] is lower in abundance fitness: 0.296 ± 0.15 for the first, 0.042 ± 0.081 for the second.

Going from KLKCQHCNHLFATKPELLFYKGKMFLFCGKNCSDEYKKKNKVVAMCDYCKLQKIIKETVRFSGVDKSFCSEVCKFLSA [P67S] to KLKCQHCNHLFATKPELLFYKGKMFLFCGKNCSDEYKKKNKVVAMCDYCKLQKIIKETVRFSGVDKTFCSEVCKFLSA [P67T], the abundance fitness falls from 0.122 ± 0.12 to -0.349 ± 0.28.

Compared with KLKCQHCNHLFATKPELLFYKGKMFLFCGKNCSDEYKKKNKVVAMCDYCKLQKIIKETVRFSGVDKVFCSEVCKFLSA [P67V], KLKCQHCNHLFATKPELLFYKGKMFLFCGKNCSDEYKKKNKVVAMCDYCKLQKIIKETVRFSGVDKWFCSEVCKFLSA [P67W] is lower in abundance fitness: 0.27 ± 0.12 for the first, -0.088 ± 0.19 for the second.

KLKCQHCNHLFATKPELLFYKGKMFLFCGKNCSDEYKKKNKVVAMCDYCKLQKIIKETVRFSGVDKPACSEVCKFLSA [F68A] and KLKCQHCNHLFATKPELLFYKGKMFLFCGKNCSDEYKKKNKVVAMCDYCKLQKIIKETVRFSGVDKPCCSEVCKFLSA [F68C] are within error of each other in abundance fitness: -0.036 ± 0.12 for the first, 0.204 ± 0.15 for the second.

Work on KLKCQHCNHLFATKPELLFYKGKMFLFCGKNCSDEYKKKNKVVAMCDYCKLQKIIKETVRFSGVDKPDCSEVCKFLSA [F68D] yielded an abundance fitness of -0.35 ± 0.17.
